Laboratory results as given in the supplement of paper PMC9170038.

Test system: MS2 coat protein
Assay: apparent KD of MS2 coat protein; designed switch direction (-1 OFF switch, 1 ON switch): -1; higher = weaker reporter binding
Outline: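 The reported apparent KD is a per-design median over clusters, from curve fits of normalised cluster fluorescence. Protein titrations used SNAP-549-labelled MS2 coat protein, doubled from 0.7 or 1.5 nM to 3 µM, in Tris-HCl pH 7.5 buffer with KCl, MgCl2, BSA, DTT, tRNA and Tween-20, with no input, 200 uM small-molecule ligand, or an oligonucleotide input. The RNA switches were transcribed on Illumina chips by stalled E. coli RNA polymerase.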

[1] = Eterna round: R95, input ligand: FMN 200 uM
[2] = Eterna round: R95, input ligand: microRNA oligo, concentration not stated
[3] = Eterna round: R95, input ligand: none
[4] = input ligand: microRNA oligo, concentration not stated

Row | Sequence | apparent KD of MS2 coat protein [1] | apparent KD of MS2 coat protein [2] | apparent KD of MS2 coat protein [3] | apparent KD of MS2 coat protein (input ligand: FMN 200 uM) | apparent KD of MS2 coat protein [4] | apparent KD of MS2 coat protein (input ligand: none)
1 | GGUCAAGAACAGAACCGCGCUGCCCUUGACCGCUCAUUUACAUGAGGAUCACCCAUGUUUUUUGCUUGUCUUGUUAC [Qugeon] (puzzle: Sensor v3, turn-off variant 2) | 0.0162 µM | 0.0896 µM | 0.0173 µM | – | – | –
2 | GGUCAGAUGGUAGGAUAUCCAUAUCGAGUGACCCUUUCAUAACAUGAGGAUCACCCAUGUCGGUGGGAGAAGGGCCGUAUGGCG [salish99_ExNG02_R04_022] (Eterna round: R96, puzzle: Exclusion NG 2) | – | – | – | 0.0698 µM | 0.0349 µM | 0.0513 µM
3 | GGUCGACAUGAGGAUCACCCAUGUUAGGAUAUUAGCCAAUGGUCUCGUUAUGAGUCAUUAAGAAGGAACAUGCU [Eternabot (L1) Solution 37] (Eterna round: R97, puzzle: Exclusion 1) | – | – | – | 0.018 µM | – | 0.0149 µM
4 | GGUCGUAGACAGGAUAUGCGGCAAAUAAAUAAAGCAGAAGGGUCUACUUGAGGAUCACCCAAGUGGGCGGUUAA [jl-ex6-4.18 ViennaUCT mod] (Eterna round: R97, puzzle: Exclusion 6) | – | – | – | 0.103 µM | – | 0.0177 µM
5 | GGUCUGCGAGGAUAUACAUGAGGAUCACCCAUGUGAGAGUUACUAGUGAGGUCGAUUGGUAGAAGGCGCGGACG [JL-ex3-2.04 salish99 mod] (puzzle: Exclusion 3) | 0.019 µM | 0.103 µM | 0.154 µM | – | – | –
6 | GGUGAAGCAGGAUAUGUACCAAUAUACAUGAGGAUCACCCAUGUCAUGUAGGAACUGCGUAUAGAAGGGCUUCACC [Exclusion 5 (FMN-MS2 slide v.7)] (Eterna round: R97, puzzle: Exclusion 5) | – | – | – | 0.123 µM | – | 0.055 µM
7 | GGUGCGUAUGUGAGGAUAUGCUGGUCCUUGGAUCAGCAGAAGGCACAUGAGGAUCACCCAUGUGGUGUCGUACU [salish99_Bmod_Ex4_013] (puzzle: Brourd's mod of Exclusion 4) | – | 0.266 µM | – | – | – | –
8 | GGUGCGUAUGUGAGGAUAUGCUGGUCCUUGGGUCGGCAGAAGGCACAUGAGGAUCACCCAUGUGGUGUCGUUCC [salish99_Bmod_ex4_101] (Eterna round: R96, puzzle: Brourd's mod of Exclusion 4) | – | – | – | 0.378 µM | 0.0803 µM | 0.122 µM
9 | GGUGCGUAUGUGAGGAUAUGCUGGUCCUUGGGUCGGCAGAAGGCACAUGAGGAUCACCCAUGUGGUGUCGUUCC [salish99_Bmod_ex4_101] (puzzle: Brourd's mod of Exclusion 4) | – | 0.068 µM | – | – | – | –
10 | GGUGCGUUUGUGAGGAUAUGCUGGUCCUUGGAUCGGCAGAAGGCACAUGAGGAUCACCCAUGUGGUGUCGUACC [salish99_Bmod_Ex4_035] (puzzle: Brourd's mod of Exclusion 4) | – | 0.28 µM | – | – | – | –
11 | GGUGGACAUGAGGAUCACCCAUGUGAGGAUAUCGGCUAUCUUGUCGCUGUCGGUUGCUCGAGAAGGCACAUUGU [Exclusion 1 V95] (puzzle: Exclusion 1) | – | 0.0692 µM | – | – | – | –
12 | GGUGGGCUAGGAUAUGCUUUGGGCGGGCAUUCCUUCGAUAAACUUGAGGAUCACCCAAGUAGAAGGAGCUUGCC [salish99_ex2_r4_024] (Eterna round: R97, puzzle: Exclusion 2) | – | – | – | 0.0162 µM | – | 0.0123 µM
13 | GGUUAUUGCAAGGAUAUGCUUUUUUUUUAUUUUGCAGAAGGUGCAACAUGAGGAUCACCCAUGUUGGAGGGUUU [JR_E6_Sub023] (puzzle: Exclusion 6) | – | 0.0217 µM | – | – | – | –
14 | GGUUGACAUGAGGAUCACCCAUGUGAGGAUAUGCGAGAGAAAAAAGUGAGGAAGUAAAGCAGAAGGCGCUGUCG [salish99-ex1_r3_004] (puzzle: Exclusion 1) | 0.0516 µM | 0.2 µM | 0.449 µM | – | – | –
15 | GGUUGACAUGAGGAUCACCCAUGUGAGGAUAUGCGAGAGAAAAAAGUGAGGAAGUUUAGCAGAAGGCGCUGUCG [salish99-ex1_r3_006] (puzzle: Exclusion 1) | 0.0556 µM | 0.071 µM | 0.0977 µM | – | – | –
16 | GGUUGGCGAGGAUAUACAUGAGGAUCACCCAUGUGAGAAGAAAAAGUGAGGAAGAAAAGUAGAAGGCGCUGACG [Mat - Exclusion 3 - Mod of Salish D1] (puzzle: Exclusion 3) | 0.074 µM | 0.103 µM | 0.0815 µM | – | – | –
17 | GGUUGGCGAGGAUAUACAUGAGGAUCACCCAUGUGAGAGAAAAAACUGAGGAAGAAAAGUAGAAGGCGCUGACG [salish99_ex3_r3_026] (puzzle: Exclusion 3) | 0.117 µM | 0.0234 µM | 0.0355 µM | – | – | –
18 | GGUUGGCGAGGAUAUACAUGAGGAUCACCCAUGUGAGAGAAAAAAGUGCGGAAGAAAAGUAGAAGGCGCUGACG [salish99_ex3_r3_029] (puzzle: Exclusion 3) | 0.0827 µM | 0.0251 µM | 0.0257 µM | – | – | –
